{
  "source": "paper PMC6366900",
  "about": "“Pat1 promotes processing body assembly by enhancing the phase separation of the DEAD-box ATPase Dhh1 and RNA” (eLife, 2019)",
  "binders": {"B1": {"name": "GST-Pat1-NC (domain or fragment, S. cerevisiae)", "chain": "GLENSGNARDGPLDFEESYKGYGEHELEENDYLNDETFGDNVQVGTDFDFGNPHSSGSSGNAIGGNGVGATARSYGGSGGSGGSGGSSSYAFNNGNGATNLNKSGGKKFILELIETVYEEILDLEANLRNGQQTDSTAMWEALHIDDSSYDVNPFISMLSFDKGIKIMPRIFNFLDKQQKLKILQKIFNELSHLQIIILSSYKTTPKPTLTQLKKVDLFQMIILKIIVSFLSNNSNFIEIMGLLLQLIRNNNVSFLTTSKIGLNLITILISRAALIKQDSSRSNILSSPEISTWNEIYDKLFTSLESKIQLIFPPREYNDHIMRLQNDKFMDEAYIWQFLASLALSGKLNHQRIIIDEVRDEIFATINEAETLQKKEKELSVLPQRSQELDTELKSIIYNKEKLYQDLNLFLNVMGLVY", "notes": "Pat1, S. cerevisiae, N-terminal fragment (Pat1-N), amino acids 5-79; linker, printed as (GGS)4; Cloned into a pETM-CN vector; The His and GST tags were cleaved unless required for pull-down assays; In the droplet assay (functional rows) the protein was Pat1-NC-GFP, not the GST form; also called recombinant Pat1-NC protein; source: E. coli BL21 DE3, purified (Ni2+ sepharose, Superdex 200); not …"}, "B2": {"name": "GST-Pat1-NC^EE (domain or fragment, S. cerevisiae)", "chain": "B1 chain with S88E, S89E", "notes": "Pat1, S. cerevisiae, N-terminal fragment (Pat1-N), amino acids 5-79; linker, printed as (GGS)4; Mutant of m1; also called Pat1^EE; phospho-mimetic mutant; source: E. coli BL21 DE3, purified (Ni2+ sepharose, Superdex 200); not shown: GST, N-terminal, kept"}},
  "target": "T1, Dhh1 (full-length) (S. cerevisiae, UniProt P39517 1-506)",
  "T1 construct": "Dhh1, DEAD-box ATPase, S. cerevisiae, full-length; also called DEAD-box ATPase Dhh1; source: purified as described previously (Mugler et al., 2016)",
  "T1 sequence (looked up)": "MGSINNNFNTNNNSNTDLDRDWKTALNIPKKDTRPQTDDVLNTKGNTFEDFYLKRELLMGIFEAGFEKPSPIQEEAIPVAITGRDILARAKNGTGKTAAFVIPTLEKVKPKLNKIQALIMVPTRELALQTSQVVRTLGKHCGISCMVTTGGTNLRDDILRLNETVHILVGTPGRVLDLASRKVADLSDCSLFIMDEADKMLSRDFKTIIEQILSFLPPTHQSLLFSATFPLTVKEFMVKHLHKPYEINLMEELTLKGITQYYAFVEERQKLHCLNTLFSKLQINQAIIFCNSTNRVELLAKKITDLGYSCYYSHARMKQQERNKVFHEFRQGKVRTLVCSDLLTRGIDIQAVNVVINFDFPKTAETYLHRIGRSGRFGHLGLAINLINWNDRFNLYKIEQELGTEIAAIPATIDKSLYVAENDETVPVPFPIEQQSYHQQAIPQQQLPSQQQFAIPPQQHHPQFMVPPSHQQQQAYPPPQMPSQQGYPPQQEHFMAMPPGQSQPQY",
  "assay": "pull-down; GST-Pat1-NC and mutants bound to GST-slurry as bait, Dhh1 as prey; 1 hr at 4°C; wash buffer 300 mM NaCl, 10 mM Tris pH 7.5, 0.05 % NP40, washed five times; 12% acrylamide gel, Coomassie",
  "details": "both partners purified",
  "note": "Where a chain is given by its changes, count along the chain named.",
  "data": [
    {"binder": "B1", "values": [
      {"measurement": "binding result", "value": "binds"}
    ]},
    {"binder": "B2", "values": [
      {"measurement": "binding result", "value": "binds"}
    ]}
  ]
}
